First the molecules themselves.
B1: HDV Ribozyme (parent)
chain: GGCCGGCAUGGUCCCAGCCUCCUCGCUGGCGCCGGCUGGGCAACAUUCCGAGGGGACCGUCCCCUCGGUAAUGGCGAAUGGGACCCA

Drawing on the RNAGym collection of RNA variant scans (doi:10.7554/elife.80360), this text covers self-cleavage for 32 variants.

In this series the parent is B1. The series can be described thus: self-cleavage, relative activity (ratio to wild type); higher = more cleavage; co-transcriptional.
Regarding GGCCGGCAUGGACCCACCCUCCUCGCUGGCGCCGGCUGGGCAACAUUCCGAGGGGACCGUCCCCUCGGUAAUGGCGAAUGGGACCCA [U12A G17C], the self-cleavage was found to be 0.0504. Turning to GGCCGGCAUGGACCCAGCCUCCUCGCUGGCGCCGGCUGGGCAACAUUCCGAGGGGACCGUCCCCUCCGUAAUGGCGAAUGGGACCCA [U12A G67C], the self-cleavage was found to be 0.244. For GGCCGGCAUGGACCCAGCCUCCUCGCUGGCGCCGGCUGGGCAACAUUCCGAGGGGACCGUCCCCUCGCUAAUGGCGAAUGGGACCCA [U12A G68C], the self-cleavage came out at 0.0755. With GGCCGGCAUGUUCCCAGCCUCCUCGCAGGCGCCGGCUGGGCAACAUUCCGAGGGGACCGUCCCCUCGGUAAUGGCGAAUGGGACCCA [G11U U27A], the self-cleavage was 0.511. As for GGCCGGCAUGGAUCCAGCCUCCUCGCUGGCGCCGGCUGGGCAACAUUCCGAGGGGACCGUCCCCUCGGUAAUGGCGAAUGGGACCCA [U12A C13U], the self-cleavage was determined as 0.0978.

Consider GGCCGGCAUGGACCCAGCAUCCUCGCUGGCGCCGGCUGGGCAACAUUCCGAGGGGACCGUCCCCUCGGUAAUGGCGAAUGGGACCCA [U12A C19A], for which the self-cleavage was 0.0287. With GGCCGGCAUGGACCCAGCCUCCUCGCUGGCGCCGGCUGGGCAACAUUCCGAGGGGACCGUCUCCUCGGUAAUGGCGAAUGGGACCCA [U12A C62U] the figure was 0.252; with GGCCGGCAUGGCCCCAGCCUCCUCGCUGGCGCCGGCUGGGCAUCAUUCCGAGGGGACCGUCCCCUCGGUAAUGGCGAAUGGGACCCA [U12C A43U], 0.0923. For the variant GGCCGGCAUGGCCCCAGCCUCCUCGCUGGCGCCGGCUGGGCACCAUUCCGAGGGGACCGUCCCCUCGGUAAUGGCGAAUGGGACCCA [U12C A43C], the self-cleavage turned out to be 0.0831.

GGCCGGCAUGGACCCAGCCUCCUCGCAGGCGCCGGCUGGGCAACAUUCCGAGGGGACCGUCCCCUCGGUAAUGGCGAAUGGGACCCA [U12A U27A]: the self-cleavage was found to be 0.791. Regarding GGCCGGCAUGGACCCAGCCUCCUCGCUGGCGCCGGCUGGGCAACAUUCCGAGGGGACCGUCCCCCCGGUAAUGGCGAAUGGGACCCA [U12A U65C], the self-cleavage was determined as 0.506. For the variant GGCCGGCAUGGACCCAGCCUCCUCGCUGGCGCGGGCUGGGCAACAUUCCGAGGGGACCGUCCCCUCGGUAAUGGCGAAUGGGACCCA [U12A C33G], the self-cleavage was found to be 0. As for GGCCGGCAUGGACCCAGCCUCCUCGCUGGCGCCGGCUGGGCAACACUCCGAGGGGACCGUCCCCUCGGUAAUGGCGAAUGGGACCCA [U12A U46C], the self-cleavage was 0. For GGCCGGCAUGGACCCAGCCUCCUCGCUGGCGCCGGCUGGGCAACAAUCCGAGGGGACCGUCCCCUCGGUAAUGGCGAAUGGGACCCA [U12A U46A], the self-cleavage came to 0.361. GGCCGGCAUGGACCCAGCCUCCUCGCUGGCGCCGGCUGGGCAACAUUCCGAGGGGACCGUACCCUCGGUAAUGGCGAAUGGGACCCA [U12A C61A]: the self-cleavage worked out at 0.443. In the case of GGCCGGCAUGGACCCAGCCUCCUCGCUGGCGCCGGCUGGGCAACAUUCCGAGGGGACCGUCCCCUCGGUAAUGGCGAAUGGGACCGA [U12A C86G], the self-cleavage worked out at 0.32. As for GGCCGGCAUGGACGCAGCCUCCUCGCUGGCGCCGGCUGGGCAACAUUCCGAGGGGACCGUCCCCUCGGUAAUGGCGAAUGGGACCCA [U12A C14G], the figure is 0.145. In the case of GGCCGGCAUGGACACAGCCUCCUCGCUGGCGCCGGCUGGGCAACAUUCCGAGGGGACCGUCCCCUCGGUAAUGGCGAAUGGGACCCA [U12A C14A], the self-cleavage was found to be 0.0504. In the case of GGCCGGCAUGGACCCAGCCUCCUCGCUGGCGCCGGCUGGGCAACAUUCCGAGGGGACCCUCCCCUCGGUAAUGGCGAAUGGGACCCA [U12A G59C], the self-cleavage came out at 0.573. GGCCGGCAUGUUCCCAGCCUCCUCGCUGGCGCCGGCUGGGCAACAUUCCGAGGGGACCGUCCCCUCGGUAAUGGCGAACGGGACCCA [G11U U79C]: the self-cleavage was 0.0652.

As for GGCCGGCAUGGACCCAGCCUCCGCGCUGGCGCCGGCUGGGCAACAUUCCGAGGGGACCGUCCCCUCGGUAAUGGCGAAUGGGACCCA [U12A U23G], the self-cleavage came to 0.0791. GGCCGGCAUGGACCCAGCCUCCUCGCUGGCGCCGGCUGGGCAACAUUCCGAGGGGACCGUCCCCUCGGUAAUGGCGAAUGGGAACCA [U12A C84A]: the self-cleavage is 0.506.

GGCCGGCAUGGACCCAGCCUCCUCGCUGGCGCCGGCUGGGCAACAUUCCGAGGGGACCGUCCCCUAGGUAAUGGCGAAUGGGACCCA [U12A C66A]: the self-cleavage was found to be 0.193. GGCCGGCAUGGACCCAGCCUCCUCGCUGGCGCCGGCUGGGCAACAUUCCGAGGGGACCGUCCCCUCGGUAAUGGCGAAUAGGACCCA [U12A G80A]: the self-cleavage was determined as 0.108. In the case of GGCCGGCAUGGACCCAGCCUCCUCGCUGGCGCCGGCUGGGCAACAUUCUGAGGGGACCGUCCCCUCGGUAAUGGCGAAUGGGACCCA [U12A C49U], the self-cleavage amounted to 0.499.

As for GGCCGGCAUGGACCCAGCCUCCUCGCUGGCGCCGGCUGGGCAACAUUCCGAGGGGACCGUCCCCUCGGUAAUGGCGAUUGGGACCCA [U12A A78U], the self-cleavage is 0.128. GGCCGGCAUGGACCCAGCCUCCUCGCUGGCGCCGGCUGGGCAACAUUCCGAGGGGACCGUCCCCUCGGUAAUUGCGAAUGGGACCCA [U12A G73U]: the self-cleavage came out at 0.0997.

For GGCCGGCAUGGACCCAGCCUCCUCGCUGGCGUCGGCUGGGCAACAUUCCGAGGGGACCGUCCCCUCGGUAAUGGCGAAUGGGACCCA [U12A C32U], the self-cleavage worked out at 0.0723. Turning to GGCCGGCAUGUUCCCAGCCUCCUCGCUGGCGCCGGCUGGGCAACAUUCCGAGGGGACCGCCCCCUCGGUAAUGGCGAAUGGGACCCA [G11U U60C], the self-cleavage was 0.342.

In the case of GGCCGGCAUGUUCCCAGCCUCCUCGCUGGCGCCGGCUGGGCAACAUUCCGAGGGGACCGACCCCUCGGUAAUGGCGAAUGGGACCCA [G11U U60A], the self-cleavage came to 0.277.

For the variant GGCCGGCAUGGACCCAGCCUCCUCGCUGGCGCCGGCUGGGCAACAUUCCGAGGCGACCGUCCCCUCGGUAAUGGCGAAUGGGACCCA [U12A G54C], the self-cleavage amounted to 0.269.

In the case of GGCCGGCAUGUUCCCAGCCUCCCCGCUGGCGCCGGCUGGGCAACAUUCCGAGGGGACCGUCCCCUCGGUAAUGGCGAAUGGGACCCA [G11U U23C], the self-cleavage was found to be 0.554.
